Laboratory results from publication PMC3234860 (The Journal of Biological Chemistry, 2011).

Experiments:
Sfr1 = target: T1, Sfr1 (S. pombe, UniProt Q9USV1 1-299); test: AUC
T1 sequence: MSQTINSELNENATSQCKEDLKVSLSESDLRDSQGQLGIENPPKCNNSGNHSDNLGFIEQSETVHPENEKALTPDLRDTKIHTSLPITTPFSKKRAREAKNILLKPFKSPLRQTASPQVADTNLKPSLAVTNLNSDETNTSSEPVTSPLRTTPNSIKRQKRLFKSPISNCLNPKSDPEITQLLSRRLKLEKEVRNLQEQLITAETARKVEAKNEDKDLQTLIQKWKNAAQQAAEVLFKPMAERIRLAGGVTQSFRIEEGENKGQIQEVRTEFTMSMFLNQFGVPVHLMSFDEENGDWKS

native MS = target: the molecule itself; test: native MS

B1: Swi5 (natural protein)
chain: MEKSQLESRVHLLEQQKEQLESSLQDALAKLKNRDAKQTVQKHIDLLHTYNEIRDIALGMIGKVAEHEKCTSVELFDRFGVNGSE
Sfr1
  stoichiometry N: 1 Swi5:Sfr1
Native MS
  stoichiometry N: 2
